Assay results published in patent US20210380675A1 (Kyowa Kirin, published 2021).

What was measured:
[1] = molecular target: T1, human IL-36α(R12), truncated (human, UniProt Q9UHA7 6-158); test: SPR, Biacore, 1:1 Langmuir fit; heads of c3 and c4 printed swapped
T1 construct: Untagged after removal of the His-SUMO tag; also called hIL-36alpha
T1 chain: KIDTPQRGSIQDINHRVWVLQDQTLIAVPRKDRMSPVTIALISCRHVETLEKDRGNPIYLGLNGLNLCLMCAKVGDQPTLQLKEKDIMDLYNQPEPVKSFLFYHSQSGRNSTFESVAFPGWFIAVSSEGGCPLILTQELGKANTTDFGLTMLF
Procedure: (§1) The humanized antibodies obtained in Example 6 were tested for their binding to recombinant human or cynomolgus macaque IL36a and IL-36γ in Biacore assays. The association time was set to 60 seconds, and the final dissociation time was set to 600 seconds. Equilibrium dissociation constant KD (kd/ka) of exemplary antibodies was determined using a 1:1 Langmuir fit model (see Tables 17-18 below).

[2] = molecular target: T2, cynomolgus IL-36α, truncated (cynomolgus macaque (Macaca fascicularis), UniProt Q9UHA7 14-158 (human entry), limits assumed); test: as above
T2 construct: Untagged after removal of the His-SUMO tag; also called cynomolgus IL-36 alpha; cyIL-36alpha
T2 chain: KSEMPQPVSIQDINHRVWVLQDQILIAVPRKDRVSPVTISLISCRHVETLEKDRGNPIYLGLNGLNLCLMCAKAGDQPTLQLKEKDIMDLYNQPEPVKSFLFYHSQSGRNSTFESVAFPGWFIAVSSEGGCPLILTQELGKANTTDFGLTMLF
Procedure: as §1

[3] = molecular target: T3, cynomolgus IL-36γ, truncated (cynomolgus macaque (Macaca fascicularis), UniProt Q9NZH8 18-167 (human entry), limits assumed); test: as above
T3 construct: Untagged after removal of the His-SUMO tag; also called cynomolgus IL-36 gamma; cyIL-36gamma
T3 chain: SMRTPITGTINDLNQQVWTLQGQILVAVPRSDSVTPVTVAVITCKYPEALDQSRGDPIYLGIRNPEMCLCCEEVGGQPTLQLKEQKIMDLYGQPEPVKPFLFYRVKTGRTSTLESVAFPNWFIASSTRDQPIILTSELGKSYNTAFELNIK
Procedure: as §1

human IL-36γ, truncated [4] = molecular target: T4, human IL-36γ, truncated (human, UniProt Q9NZH8 18-169); test: as above
T4 construct: Bought from R&D Systems (cat 6835-IL); also called human IL-36 gamma; hIL-36gamma
T4 sequence: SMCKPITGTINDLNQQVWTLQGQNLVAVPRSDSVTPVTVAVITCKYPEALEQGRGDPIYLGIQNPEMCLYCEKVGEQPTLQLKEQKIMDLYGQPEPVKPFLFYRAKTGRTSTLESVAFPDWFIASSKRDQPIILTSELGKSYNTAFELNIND
Procedure: as §1

[5] = molecular target: T1, human IL-36α(R12), truncated; test: cell-based or functional assay
[6] = molecular target: T2, cynomolgus IL-36α, truncated; test: cell-based or functional assay
[7] = molecular target: T1, human IL-36α(R12), truncated; test: SPR, Biacore T200, antibody on chip, IL-36 as analyte, 1:1 Langmuir fit
Summary of the method: (§2)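 Single-cycle kinetics: mouse/human chimeric or mouse antibodies captured (~200 RU) via anti-human or anti-mouse Fc on CM5, then increasing IL-36 concentrations injected, 300 s association, 1200 s dissociation. Alternatively ~2000 RU antibody amine-coupled, analyte 30 μL/min for 420 s, 3600 s dissociation, 25° C; double-referenced sensorgrams.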

human IL-36γ, truncated [8] = molecular target: T4, human IL-36γ, truncated; test: as above
Summary of the method: as §2

[9] = molecular target: T1, human IL-36α(R12), truncated; test: cell-based or functional assay
human IL-36γ, truncated [10] = molecular target: T4, human IL-36γ, truncated; test: cell-based or functional assay
[11] = molecular target: T3, cynomolgus IL-36γ, truncated; test: cell-based or functional assay
human IL-36γ, truncated [12] = molecular target: T4, human IL-36γ, truncated; test: cell-based or functional assay; remark: listed apart in the source
human IL-36γ, truncated [13] = molecular target: T4, human IL-36γ, truncated; test: cell-based or functional assay; remark: listed apart in the source
[14] = molecular target: T1, human IL-36α(R12), truncated; test: SPR, Biacore, 1:1 Langmuir fit
Procedure: as §1

[15] = molecular target: T2, cynomolgus IL-36α, truncated; test: SPR, Biacore, 1:1 Langmuir fit
Procedure: as §1

[16] = molecular target: T3, cynomolgus IL-36γ, truncated; test: SPR, Biacore, 1:1 Langmuir fit
Procedure: as §1

human IL-36γ, truncated [17] = molecular target: T4, human IL-36γ, truncated; test: SPR, Biacore, 1:1 Langmuir fit
Procedure: as §1

human IL-36γ, truncated [18] = molecular target: T4, human IL-36γ, truncated; test: cell-based or functional assay; remark: listed apart in the source
[19] = molecular target: T2, cynomolgus IL-36α, truncated; test: ELISA binding screen and HaCaT assay
[20] = molecular target: T3, cynomolgus IL-36γ, truncated; test: ELISA binding screen and HaCaT assay
[21] = molecular target: T1, human IL-36α(R12), truncated; test: ELISA binding screen and HaCaT assay

B1: 144D464A (antibody, V domains shown)
VH: EVQLQQSGAELVKPGASVRLSCTASGFNIKDTYIHWVKQRPEQGLEWIGRIDPAIGTTRYDPKFQGKATITTDTSSDTVHLQFSSLTSEDTAVYYCARLHYFGNNFFFDYWGQGTTLTVSS
VL: QAVVTQESALTTSPGEAVTLTCRSSSGAVTTSNYANWVQEKPDHLFAGLIGGTNDRAPGVPARFSGSLIGDKAALTITGAQTEDEAIYFCALWFSNHWVFGGGTKLTVL
notes: Mouse monoclonal from hybridoma; mouse IgG heavy and lambda light chain; also called mouse antibody 144D464A
koff [1]: 0.000362 s⁻¹
kon [1]: 274000 M⁻¹ s⁻¹
koff [2]: 0.000338 s⁻¹
kon [2]: 465000 M⁻¹ s⁻¹
koff [3]: 0.000427 s⁻¹
kon [3]: 493000 M⁻¹ s⁻¹
koff (human IL-36γ, truncated [4]): 0.00034 s⁻¹
kon (human IL-36γ, truncated [4]): 388000 M⁻¹ s⁻¹
IC50 of IL-8 secretion, HaCaT, 10 nM human IL-36α, FIG. 1B [5]: 6.49 nM
IC50 of IL-8 secretion, HaCaT, 10 nM cynomolgus IL-36α, FIG. 2A [6]: 5.3 nM
Kd [7]: 2.53 nM
koff [7]: 0.000309 s⁻¹
kon [7]: 122000 M⁻¹ s⁻¹
Kd (human IL-36γ, truncated [8]): 3.81 nM
koff (human IL-36γ, truncated [8]): 0.00032 s⁻¹
kon (human IL-36γ, truncated [8]): 84000 M⁻¹ s⁻¹
IC50 of IL-8 secretion, primary human keratinocytes, 8 nM human IL-36α, FIG. 4B [9]: 13.4 nM
IC50 of IL-8 secretion, primary human keratinocytes, 8.4 nM human IL-36γ, FIG. 4D (human IL-36γ, truncated [10]): 13.3 nM
IC50 of IL-8 secretion, HaCaT, 10 nM cynomolgus IL-36γ, FIG. 2C [11]: 15.6 nM
IC50 of IL-8 secretion, HaCaT, 10 nM human IL-36γ, FIG. 1E (human IL-36γ, truncated [12]): 7.39 nM
IC50 (read off the curve) (human IL-36γ, truncated [13]): ~8 nM
Kd [14]: 1.32 nM
Kd [15]: 0.727 nM
Kd [16]: 0.865 nM
Kd (human IL-36γ, truncated [17]): 0.877 nM
IC50 of IL-8 secretion, primary human monocytes, 6 nM human IL-36γ, FIG. 5C (human IL-36γ, truncated [18]): 13.2 nM

B2: 144D666C (antibody, V domains shown)
VH: EVQLQQSGAELVKPGASVKLTCTASGFNIKDTYIYWVKQRPAQGLEWIGRIDPANAYTKFDPKFQGKATLTADTSSNTAYLQLSSLTSEDTAVYYCTRFHWYGSSFFFDYWGQGTTLTVSS
VL: QAVVTQESALTTSPGETVTLTCRSSTGAVTTSNYANWVQEKPDHLFTGLIGGTDNRPPGVPARFSGSLIGDKAALTITGAQTEDEAIYFCALWYSNLWVFGGGTKLTVL
notes: Mouse monoclonal from hybridoma; mouse IgG heavy and lambda light chain
IC50 of IL-8 secretion, HaCaT, 10 nM human IL-36α, FIG. 1A [5]: 49.5 nM
Kd [7]: 18 nM
koff [7]: 0.00184 s⁻¹
kon [7]: 102000 M⁻¹ s⁻¹
Kd (human IL-36γ, truncated [8]): 1.08 nM
koff (human IL-36γ, truncated [8]): 0.000676 s⁻¹
kon (human IL-36γ, truncated [8]): 625000 M⁻¹ s⁻¹
binding result [19]: binds
binding result [20]: binds
IC50 of IL-8 secretion, HaCaT, 10 nM human IL-36γ, FIG. 1D (human IL-36γ, truncated [12]): 5.12 nM

B3: 144L472A (antibody, V domains shown)
VH: EVQLQQSGAELVKPGASVKLSCTVSGFNIKDTYMYWVKQRPEQGLEWIGRIDPANGYAKYDPKFQGKATLTADTSSNTAYLQLSSLTSEDTAVYFCARFHWYDSAFYFDFWGQGTTLTVSS
VL: QAVVTQESALTTSPGETVTLTCRSSSGAVTTSNYANWVQEKPDHLFTGLIGGTNNRAPGVPARFSGSLIGDKAALTITGAQTEDEAIYFCGLWYSNHWVFGGGTKLTVL
notes: as for B2
IC50 of IL-8 secretion, HaCaT, 10 nM cynomolgus IL-36α, FIG. 2B [6]: 63.2 nM
Kd (human IL-36γ, truncated [8]): 1000 nM
koff (human IL-36γ, truncated [8]): 0.00208 s⁻¹
kon (human IL-36γ, truncated [8]): 2070 M⁻¹ s⁻¹
binding result [21]: binds
IC50 of IL-8 secretion, HaCaT, 10 nM cynomolgus IL-36γ, FIG. 2D [11]: 17.1 nM
IC50 of IL-8 secretion, HaCaT, 10 nM human IL-36γ, FIG. 1F (human IL-36γ, truncated [12]): 11.9 nM
IC50 of IL-8 secretion, primary human monocytes, 6 nM human IL-36γ, FIG. 5C (human IL-36γ, truncated [18]): 15.7 nM
IC50 of IL-8 secretion, primary human monocytes, 50 nM human IL-36γ, FIG. 5D (human IL-36γ, truncated [18]): 40 nM
